Measured values published in US20150086555A1.

Key:
Conditions in all cases: remark: other sources report otherwise
[1] = target: T1, recombinant soluble homotrimeric HA of A/Anhui/1/05 (H5N1) (Influenza A virus A/Anhui/1/2005(H5N1)); experiment: trimeric HA microarray, transfection supernatant set 1
[2] = target: T2, recombinant soluble homotrimeric HA of A/Wisconsin/67/05 (H3N2) (Influenza A virus A/Wisconsin/67/2005(H3N2)); experiment: trimeric HA microarray, transfection supernatant set 2
[3] = target: T3, recombinant soluble homotrimeric HA of A/swine/Ontario/01911-2/99 (H4N6) (Influenza A virus A/Swine/Ontario/01911-2/99 (H4N6)); experiment: as above
[4] = target: T2, recombinant soluble homotrimeric HA of …; experiment: trimeric HA microarray, transfection supernatant set 3
[5] = target: T4, recombinant soluble homotrimeric HA of A/duck/Yangzhou/02/05 (H8N4) (Influenza A virus A/duck/Yangzhou/02/2005(H8N4)); experiment: as above
[6] = target: T3, recombinant soluble homotrimeric HA of …; experiment: as above
[7] = target: T1, recombinant soluble homotrimeric HA of …; experiment: trimeric HA microarray, transfection supernatant set 5
[8] = target: recombinant soluble homotrimeric HA of A/California/4/09 (H1N1) (Influenza A virus A/California/04/2009(H1N1)); experiment: as above
[9] = target: recombinant soluble homotrimeric HA of A/Egypt/3300-NAMRU3/08 (H5N1) (Influenza A virus A/Egypt/3300-NAMRU3/2008(H5N1)); experiment: as above
[10] = target: recombinant soluble homotrimeric HA of A/Hong Kong/156/97 (H5N1) (Influenza A virus A/Hong Kong/156/97 (H5N1)); experiment: as above
[11] = target: recombinant soluble homotrimeric HA of A/Indonesia/5/05 (H5N1) (Influenza A virus A/Indonesia/5/2005(H5N1)); experiment: as above
[12] = target: recombinant soluble homotrimeric HA of A/Japan/305/57 (H2N2) (Influenza A virus A/Japan/305/1957(H2N2)); experiment: as above
[13] = target: recombinant soluble homotrimeric HA of A/Netherlands/219/03 (H7N7) (Influenza A virus A/Netherlands/219/03(H7N7)); experiment: as above
[14] = target: recombinant soluble homotrimeric HA of A/Solomon Islands/3/06 (H1N1) (Influenza A virus A/Solomon Islands/3/2006(H1N1)); experiment: as above
[15] = target: recombinant soluble homotrimeric HA of A/South Carolina/1/18 (H1N1) (Influenza A virus A/South Carolina/1/18 (H1N1)); experiment: as above
[16] = target: recombinant soluble homotrimeric HA of A/Vietnam/1203/04 (H5N1) (Influenza A virus A/VietNam/1203/2004(H5N1)); experiment: as above
[17] = target: T2, recombinant soluble homotrimeric HA of …; experiment: as above
[18] = target: recombinant soluble homotrimeric HA of A/chicken/Vietnam/NCVD-016/08 (H5N1) (Influenza A virus A/chicken/Vietnam/NCVD-016/2008(H5N1)); experiment: as above
[19] = target: T4, recombinant soluble homotrimeric HA of …; experiment: as above
[20] = target: T5, recombinant soluble homotrimeric HA of A/northern shoveler/California/HKWF115/07 (H6) (Influenza A virus A/northern shoveler/California/HKWF115/2007(H6N1)); experiment: as above
[21] = target: T3, recombinant soluble homotrimeric HA of …; experiment: as above
[22] = target: T6, recombinant soluble homotrimeric HA of A/Hong Kong/1073/99 (H9N2) (Influenza A virus A/Hong Kong/1073/99 (H9N2)); experiment: trimeric HA microarray, transfection supernatant set 2
[23] = target: recombinant soluble homotrimeric HA of A/Hong Kong/2108/03 (H9N2) (Influenza A virus A/HK/2108/2003(H9N2)); experiment: as above
[24] = target: T5, recombinant soluble homotrimeric HA of …; experiment: as above
[25] = target: T6, recombinant soluble homotrimeric HA of …; experiment: trimeric HA microarray, transfection supernatant set 3
[26] = target: T5, recombinant soluble homotrimeric HA of …; experiment: as above

B1: TCN-504 (3251_K17) (antibody, V domains shown)
VH: QVQLQESGPGLVKPSETLSLTCAVSGVSISNIDFYWGWIRQPPGKGLEWIGNIYYTGITFYNPSLSSRVAISIDTSKNQFSLTLTSVTAADTAMYYCARHYGDSEAINDAFDIWGQGTMLTVSS
VL: EIVMTQSPATLSVSPGERATLSCRASQSVGNSLAWYQQRPGQAPRLLIYGASTRATGIPPRFSGSGSGTEFTLTISSLQTEDFAVYYCQQYINWRPLSFGGGTKVEIK
For B1, the Trimeric HA Binding: RLU [1] was 29000 RLU, the Trimeric HA Binding: RLU [2] was 21600 RLU and the Trimeric HA Binding: RLU [3] was 32500 RLU. The Trimeric HA Binding: RLU [4] was 21400 RLU, the Trimeric HA Binding: RLU [5] was 19600 RLU and the Trimeric HA Binding: RLU [6] was 34500 RLU.

B2: TCN-543 (5081_G23) (antibody, V domains shown)
VH: QVHLVQSGAEVRKPGDSVKVSCKTSGYTFSTYPVAWVRQVPGQGLEWMGWISTYNGNTNFAQNFQGRVTLTTDTTTNTAYMEVRSLKFDDTAVYYCARVEGSYRDFWNNQNRFDPWGQGTLVTVSS
VL: SYVLTQPPSVSVAPGQTARISCGGSNIGGKSVHWYQQKPGQAPVLVVYDDSGRPSGIPERFSGSNSGDTATLTISRVEAGDEADYFCQVWDNFGGVFGTGTKVTVL
Work on B2 yielded a Trimeric HA Binding: RLU [7] of 2630 RLU, a Trimeric HA Binding: RLU [8] of 2340 RLU and a Trimeric HA Binding: RLU [9] of 17600 RLU. For the same binder, the Trimeric HA Binding: RLU [10] was 1430 RLU, the Trimeric HA Binding: RLU [11] was 1830 RLU and the Trimeric HA Binding: RLU [12] was 2780 RLU. The Trimeric HA Binding: RLU [13] was 12900 RLU, the Trimeric HA Binding: RLU [14] was 43500 RLU and the Trimeric HA Binding: RLU [15] was 28300 RLU. The Trimeric HA Binding: RLU [16] was 33100 RLU, the Trimeric HA Binding: RLU [17] was 37000 RLU and the Trimeric HA Binding: RLU [18] was 5880 RLU. The Trimeric HA Binding: RLU [19] was 13100 RLU, the Trimeric HA Binding: RLU [20] was 2510 RLU and the Trimeric HA Binding: RLU [21] was 2870 RLU.

B3: TCN-522 (3212_I12) (antibody, V domains shown)
VH: QVQLQQWGAGLLKPSETLSLTCTVSGGSLTDYSWNWIRQPPGKGLEWIGDTLHNGYTNYNPSLRGRVSISIDTSKNQVSLRLTSVTAADTALYYCARGSGGYGGFDYFGKLRTWDFWGQGTLVTVSS
VL: DIQLTQSPSSLSASVGDRVTITCRASQGIRNDLGWYQQKPGNAPKRLIFGASSLQSGVPSRFSGSGSGTEFTLTISSLQPEDFATYYCLQHNSYPYTFGQGTKLEIK
With B3 the Trimeric HA Binding: RLU [22] was 11800 RLU, the Trimeric HA Binding: RLU [23] was 203 RLU and the Trimeric HA Binding: RLU [24] was 54400 RLU.

B4: TCN-530 (5248_H10a) (antibody, V domains shown)
VH: QVQLVQSGAEVRKPGSSVKVSCKASGGPFMSYAIGWVRQAPGQGLEWMGGINPVFGRPHYAQKFQGRVTIATDDSTKTSYMELSSLTSEDTGMYYCASRYSRSSPGTFESWGQGTLVTVSS
VL: EIVMTQFPATLSVSPGERVTLSCRASQSVSNNLAWYQQKPGQPPRLLIYDASTRATGVPAKFSGTGSGTEFTLSISSLQSEDFAVYYCQQYHNWPPSYSFGLGTKLEIK
With B4 the Trimeric HA Binding: RLU [25] was 10200 RLU, the Trimeric HA Binding: RLU [4] was 3050 RLU and the Trimeric HA Binding: RLU [5] was 227 RLU. The Trimeric HA Binding: RLU [26] was 23500 RLU and the Trimeric HA Binding: RLU [6] was 123 RLU.

B5: TCN-527 (5086_C06) (antibody, V domains shown)
VH: QVQLQESGPGLVKPSETLSLNCAVSGGSISNYYWSWIRQPPGKGLEWIGYISYNGRPKYNPSLTSRVTISVDTSKDQFSLELRSVTAADTALYYCARETRFGELLSPYDAFEIWGQGTMVTVSS
VL: DIQMTQSPSSLSASVGDRVTMTCRASQNIRSYLNWYQQRPGTAPKLLIYAASTLHSGVPSRFSGGGSGTDFTLTINNLQPEDFASYYCQQSYDNPQTFGQGTKVEIK
Work on B5 yielded a Trimeric HA Binding: RLU [23] of 25500 RLU, a Trimeric HA Binding: RLU [2] of 35800 RLU and a Trimeric HA Binding: RLU [24] of 19300 RLU. It also gave a Trimeric HA Binding: RLU [3] of 30100 RLU.

B6: TCN-563 (5237_B21) (antibody, V domains shown)
VH: QVQLAQSGAEVKRPGSSVKVSCTASGGIFRKNAISWVRQAPGQGLEWMGGIIAVFNTANYAQKFQGRVKITADESGNTAYMELSSLRSDDTAVYYCASHPKYFYGSGSYPDFWGQGTLVTVSS
VL: QSALTQPRSVSGSPGQSVTISCTGSSSDVGASNSVSWYQQHPGKAPKLVIYDVTERPSGVPHRFSGSKSGNTASLTVSGLQPEDEADYFCCAYGGKYLVVFGGGTKVTVL
With B6 the Trimeric HA Binding: RLU [22] was 49200 RLU, the Trimeric HA Binding: RLU [23] was 364 RLU and the Trimeric HA Binding: RLU [2] was 23700 RLU. For the same binder, the Trimeric HA Binding: RLU [24] was 21900 RLU and the Trimeric HA Binding: RLU [3] was 2250 RLU.

B7: TCN-528 (5087_P17) (antibody, V domains shown)
VH: QVQLVQSGSEVKKPGASVKVSCKASGYTFTNYDINWIRQAPGQGLEWMGWINPNSGTTGSAQRFQGRVTITVDTSITTVYMELSSLRSDDTAIYYCARGRELLRLQHFLTDSQSERRDCFDPWGQGTLVTVSS
VL: DIQMTQSPSSLSASVGDRVTITCRANQDIGIYLNWYQQNPGKVPKLLLHGASSLQGGVPSRFSASGSGTDFTLTIHSLQPEDLATYYCQQSRRLPYTFGQGTRVELK
In the case of B7, the Trimeric HA Binding: RLU [23] is reported as 33600 RLU, the Trimeric HA Binding: RLU [2] is reported as 46000 RLU and the Trimeric HA Binding: RLU [24] is reported as 28400 RLU. It also gave a Trimeric HA Binding: RLU [3] of 49200 RLU.

B8: TCN-523 (5248_A17) (antibody, V domains shown)
VH: QVQLVQSGAEVKKPGSSVKVSCKASGGSFSNYAFSWVRQAPGQGLEWMGGTIPLLGTTNYAQKFQGRVTISADQFTSTAYMELGSLRSEDTAVYYCTRRKMTTAFDSWGQGTLVTVSS
VL: QPVLTQPPSASASLGASVTLTCTLSSAYSNYKVDWYQQRPGKGPRFVMRVGTGGIVGSKGDGIPDRFSVLGSGLNRYLTIKNIQEEDESDYHCGADHGSGSNFVSPYVFGGGTKLTVL
B8 was tested, and the Trimeric HA Binding: RLU [1] was 60 RLU, the Trimeric HA Binding: RLU [22] was 31300 RLU and the Trimeric HA Binding: RLU [23] was 18 RLU. It also gave a Trimeric HA Binding: RLU [24] of 21200 RLU, a Trimeric HA Binding: RLU [25] of 24200 RLU and a Trimeric HA Binding: RLU [26] of 29400 RLU.
